Laboratory results published in patent US20200206371A1 (WAYNE STATE UNIVERSITY, published 2020).
Each block holds one molecule with its values, some of them ahead of it.

How the values were obtained:
[1] = molecular target: T1, murine IFN-γ (recombinant IFN-γ) (mouse, UniProt P01580 23-155); assay: Octet (BLI); format not stated; diabody (scFv homodimer), not full-length antibody
T1 construct: AN-18 is described as a rat mAb to murine IFN-γ; also called rIFN-γ; interferon gamma
T1 sequence (looked up): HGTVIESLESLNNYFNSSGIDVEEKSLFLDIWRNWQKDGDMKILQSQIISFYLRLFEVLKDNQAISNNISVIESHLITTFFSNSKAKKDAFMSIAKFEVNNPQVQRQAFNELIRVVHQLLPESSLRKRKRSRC

[2] = molecular target: T1, murine IFN-γ (recombinant IFN-γ); assay: Octet (BLI); format not stated; full-length AN18, not diabody

Kd [1]: 0.0379 µM
Molecule: anti-IFN-γ diabody (homodimer of the single chain Fv derived from anti-IFNγ clone AN18, made in CHO cells)

Kd [2]: 0.0282 µM
B1: AN-18 (anti-IFNγ, rat IgG1, kappa, eBioscience), full-length (antibody, V domains shown)
VH: QVQLKESGPGLVQPSQTLSLTCTVSGFSLDSYNVHWVRQPPGKGLEWMGRMKYNGDTSYNSALKSRLRISRDTSKNQVFLKMNSLQTDDTGTYYCTRDWHYGYPSPYFEFWGQGVMVTVSS
VL: DVQMTQSPSYLAASPGESVSISCKASKNINTYLAWYQEKPGKTNKLLIYSGSTLQSGTPSRFSGSGSGTDFTLTIRSLEPEDFAVYYCQQHNEYPLTFGSGTKLEVKR
notes: Bought rat IgG1, kappa monoclonal antibody; also called full-length AN18; anti-mouse IFN-γ mAb clone AN-18
